Laboratory results published in the supplement of paper PMC9112550, “Optimization of the antimicrobial peptide Bac7 by deep mutational scanning” (BMC Biology, 2022).

What follows are sequences tested on Escherichia coli TOP10 (assay: shrunken log2 fold change of peptide-encoding DNA abundance (4.5 h post-induction vs induction); higher = less antimicrobial activity (less host growth inhibition)). Conditions: time post-induction: 4.5 h; library: site-saturation at positions 5, 18, 19, 20.
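Further: peptides expressed intracellularly from a pBAD plasmid library in pooled LB shake-flask culture, induced with 0.3% L-arabinose, DNA abundance read by NGS, three biological replicates, DESeq2 with apeglm shrinkage.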

Row | Sequence | shrunken log2 fold change
1 | RRIRYRPPRLPRPRPRPMSEPRP | 0.0461
2 | RRIRPRPPRLPRPRPRPSWTPRP | -0.326
3 | RRIRQRPPRLPRPRPRPSLNPRP | -0.216
4 | RRIRTRPPRLPRPRPRPPARPRP | 0.546
5 | RRIRLRPPRLPRPRPRPCAHPRP | -0.417
6 | RRIRRRPPRLPRPRPRPPKWPRP | 0.628
7 | RRIRTRPPRLPRPRPRPWQQPRP | -0.0121
8 | RRIRFRPPRLPRPRPRPMQWPRP | -0.113
9 | RRIRPRPPRLPRPRPRPMRYPRP | 0.0689
10 | RRIRIRPPRLPRPRPRPENKPRP | -0.663
11 | RRIRHRPPRLPRPRPRPVMMPRP | -0.123
12 | RRIRLRPPRLPRPRPRPIHNPRP | -1.05
13 | RRIRKRPPRLPRPRPRPNEGPRP | 0.0728
14 | RRIRFRPPRLPRPRPRPQETPRP | -0.0613
15 | RRIRVRPPRLPRPRPRPKSVPRP | -0.00455
16 | RRIRYRPPRLPRPRPRPNDDPRP | -0.0641
17 | RRIRWRPPRLPRPRPRPGGTPRP | 0.209
18 | RRIRRRPPRLPRPRPRPGQHPRP | -0.0579
19 | RRIRYRPPRLPRPRPRPNPAPRP | 0.0854
20 | RRIRMRPPRLPRPRPRPLDRPRP | 0.816
21 | RRIRFRPPRLPRPRPRPYCEPRP | -0.0267
22 | RRIRFRPPRLPRPRPRPMAFPRP | -0.126
23 | RRIRCRPPRLPRPRPRPCWNPRP | -0.49
24 | RRIRVRPPRLPRPRPRPQKQPRP | -0.376
25 | RRIRDRPPRLPRPRPRPAMPPRP | -0.107

Row | Sequence | shrunken log2 fold change
26 | RRIRCRPPRLPRPRPRPHKMPRP | -0.593
27 | RRIRVRPPRLPRPRPRPEPAPRP | 0.44
28 | RRIRRRPPRLPRPRPRPSLCPRP | 1.05
29 | RRIRQRPPRLPRPRPRPSPAPRP | 0.611
30 | RRIRMRPPRLPRPRPRPVKHPRP | 0.0894
31 | RRIRPRPPRLPRPRPRPCTYPRP | -0.253
32 | RRIRIRPPRLPRPRPRPPMMPRP | 0.568
33 | RRIRERPPRLPRPRPRPTNKPRP | -0.533
34 | RRIRLRPPRLPRPRPRPSNVPRP | -0.288
35 | RRIRFRPPRLPRPRPRPDHGPRP | 0.0405
36 | RRIRARPPRLPRPRPRPEECPRP | 1.27
37 | RRIRTRPPRLPRPRPRPCPAPRP | 0.115
38 | RRIRMRPPRLPRPRPRPAVMPRP | 0.782
39 | RRIRNRPPRLPRPRPRPWPFPRP | 0.0256
40 | RRIRERPPRLPRPRPRPIICPRP | -0.0147
41 | RRIRYRPPRLPRPRPRPADLPRP | -0.00419
42 | RRIRPRPPRLPRPRPRPPGKPRP | 0.335
43 | RRIRSRPPRLPRPRPRPTKGPRP | -0.0226
44 | RRIRKRPPRLPRPRPRPNTFPRP | -0.0899
45 | RRIRQRPPRLPRPRPRPSQWPRP | -0.02
46 | RRIRHRPPRLPRPRPRPYKNPRP | -0.646
47 | RRIRARPPRLPRPRPRPQMNPRP | -0.113
48 | RRIRIRPPRLPRPRPRPVGVPRP | -0.157
49 | RRIRGRPPRLPRPRPRPKFCPRP | 0.23
50 | RRIRGRPPRLPRPRPRPNDPPRP | -0.0529

Row | Sequence | shrunken log2 fold change
51 | RRIRERPPRLPRPRPRPTLGPRP | 0.0905
52 | RRIRHRPPRLPRPRPRPVHLPRP | -0.0199
53 | RRIRRRPPRLPRPRPRPMPAPRP | 0.203
54 | RRIRPRPPRLPRPRPRPHNAPRP | -0.284
55 | RRIRERPPRLPRPRPRPGTPPRP | 0.0316
56 | RRIRFRPPRLPRPRPRPYDLPRP | -1.02
57 | RRIRCRPPRLPRPRPRPIHMPRP | 0.109
58 | RRIRYRPPRLPRPRPRPSGNPRP | -0.067
59 | RRIRARPPRLPRPRPRPIDCPRP | 0.335
60 | RRIRTRPPRLPRPRPRPAMKPRP | -0.125
61 | RRIRPRPPRLPRPRPRPNTRPRP | -0.112
62 | RRIRERPPRLPRPRPRPFGRPRP | -0.0419
63 | RRIRIRPPRLPRPRPRPMVAPRP | -0.14
64 | RRIRGRPPRLPRPRPRPKWFPRP | 0.0384
65 | RRIRIRPPRLPRPRPRPMQQPRP | 0.0184
66 | RRIRLRPPRLPRPRPRPNDVPRP | -0.111
67 | RRIRWRPPRLPRPRPRPDICPRP | -0.0379
68 | RRIRHRPPRLPRPRPRPFHNPRP | -0.305
69 | RRIRQRPPRLPRPRPRPRWQPRP | 0.0759
70 | RRIRCRPPRLPRPRPRPHGYPRP | -0.108
71 | RRIRDRPPRLPRPRPRPTFCPRP | 0.164
72 | RRIRPRPPRLPRPRPRPEKLPRP | 0.226
73 | RRIRHRPPRLPRPRPRPRPQPRP | 0.416
74 | RRIRLRPPRLPRPRPRPFAKPRP | -0.118
75 | RRIRERPPRLPRPRPRPPKKPRP | 0.0812

Row | Sequence | shrunken log2 fold change
76 | RRIRDRPPRLPRPRPRPNPCPRP | -0.328
77 | RRIRSRPPRLPRPRPRPICWPRP | 0.0446
78 | RRIRLRPPRLPRPRPRPNNAPRP | -0.221
79 | RRIRVRPPRLPRPRPRPGFLPRP | 0.101
80 | RRIRYRPPRLPRPRPRPTFYPRP | -0.803
81 | RRIRHRPPRLPRPRPRPNAFPRP | -0.14
82 | RRIRHRPPRLPRPRPRPQHEPRP | -0.191
83 | RRIRCRPPRLPRPRPRPHSGPRP | 0.00506
84 | RRIRFRPPRLPRPRPRPAYGPRP | -0.41
85 | RRIRFRPPRLPRPRPRPTRKPRP | 0.516
86 | RRIRYRPPRLPRPRPRPDCAPRP | -0.218
87 | RRIRGRPPRLPRPRPRPTVLPRP | 0.564
88 | RRIRNRPPRLPRPRPRPATDPRP | 0.14
89 | RRIRWRPPRLPRPRPRPPHDPRP | 0.738
90 | RRIRPRPPRLPRPRPRPPVWPRP | 0.27
91 | RRIRARPPRLPRPRPRPFCLPRP | 0.0753
92 | RRIRGRPPRLPRPRPRPNKIPRP | 0.214
93 | RRIRIRPPRLPRPRPRPTGEPRP | 0.00229
94 | RRIRKRPPRLPRPRPRPVYLPRP | -0.326
95 | RRIRDRPPRLPRPRPRPLRRPRP | 0.463
96 | RRIRMRPPRLPRPRPRPHMFPRP | -0.222
97 | RRIRGRPPRLPRPRPRPGVPPRP | 1
98 | RRIRTRPPRLPRPRPRPAKFPRP | -0.00176
99 | RRIRARPPRLPRPRPRPAMFPRP | -0.0337
100 | RRIRNRPPRLPRPRPRPGYQPRP | -0.0454

Row | Sequence | shrunken log2 fold change
101 | RRIRERPPRLPRPRPRPFWLPRP | 0.463
102 | RRIRVRPPRLPRPRPRPTRNPRP | 0.0987
103 | RRIRRRPPRLPRPRPRPKMKPRP | 0.316
104 | RRIRDRPPRLPRPRPRPWQIPRP | 0.0319
105 | RRIRPRPPRLPRPRPRPVRQPRP | 0.219
106 | RRIRDRPPRLPRPRPRPMNTPRP | -0.125
107 | RRIRKRPPRLPRPRPRPTMPPRP | 0.282
108 | RRIRKRPPRLPRPRPRPGGWPRP | 0.62
109 | RRIRVRPPRLPRPRPRPLNKPRP | -0.323
110 | RRIRPRPPRLPRPRPRPVAFPRP | -0.0622
111 | RRIRDRPPRLPRPRPRPVACPRP | 0.35
112 | RRIRVRPPRLPRPRPRPHPKPRP | 0.0188
113 | RRIRNRPPRLPRPRPRPEATPRP | 0.556
114 | RRIRQRPPRLPRPRPRPALHPRP | 1.38
115 | RRIRMRPPRLPRPRPRPIGAPRP | 0.739
116 | RRIRKRPPRLPRPRPRPSQAPRP | -0.0142
117 | RRIRHRPPRLPRPRPRPIGNPRP | -0.199
118 | RRIRERPPRLPRPRPRPLMCPRP | -0.267
119 | RRIRTRPPRLPRPRPRPSFEPRP | -0.328
120 | RRIRSRPPRLPRPRPRPYMLPRP | -0.981
121 | RRIRYRPPRLPRPRPRPHCPPRP | -0.0417
122 | RRIRYRPPRLPRPRPRPCLPPRP | -0.409
123 | RRIRIRPPRLPRPRPRPPNDPRP | -0.55
124 | RRIRCRPPRLPRPRPRPTMQPRP | -0.0203
125 | RRIRQRPPRLPRPRPRPQYPPRP | -0.199
